Here are results for 20 sequences from the DeepSol protein solubility set.

A short description of the series: soluble on expression in E. coli; label from the status in PepcDB or PDB records.
As to “MGSDKIHHHHHHMMHDDQVNIDIDIARKMIRDQFPQYRHEDITSVGSSGTVNAIFRIGSKSAARFPLRAMNPTECADMLRSEAAAMVEIGKHCLFPTPQPIGIGEPGPRYPMPWALQTWIEGEVATPHGLSGSTMFALDLARLVASLRQADTRGRRFDGQGRGGHLPDHDDWMAVCLENSEGLLDVARLRDLWARLRELPCAGSVVMSHKDLIPANLLVQGERLVGVLDGGSFGPADPSLDLVVGWHLLDRERRAAFRSGLQVEDLLWKRGAAWAFQQAMGLVWYYRRTNRAMSALGRSTLSRILADPDI”, the “soluble on expression in E. coli” value is reported as “not soluble”.

With “MPMRYWLMKSEPDETSIDHLAAEPARLFEWTGVRNYQARNFMRDDMQPGDLLLFWHSSCPEPGIAGIAEVAAAAHADSSQFDPASPYHDPKSDPADPRWLCVDVRFVRKTRLLPPAELRRHPPLEGMTVLKRGNRLSITPVTAEEWAYLMDLLDIRRAGLEHHHHHH”, the “soluble on expression in E. coli” value is recorded as “soluble”.

For “MSLTEKFRPTLKDVARQAGVSIATASRALADNPAVAASTRERIQQLASDLGYRANAQARALRSSRSNTIGVIVPSLINHYFAAMVTEIQSTASKAGLATIITNSNEDATTMSGSLEFLTSHGVDGIICVPNEECANQLEDLQKQGMPVVLVDRELPGDSTIPTATSNPQPGIAAAVELLAHNNALPIGYLSGPMDTSTGRERLEDFKAACANSKIGEQLVFLGGYEQSVGFEGATKLLDQGAKTLFAGDSMMTIGVIEACHKAGLVIGKDVSVIGFDTHPLFALQPHPLTVIDQNVEQLAQRAVSILTELIAGTVPSVTKTTIPTALIHRESIINSTLRKEGHHHHHH”, the “soluble on expression in E. coli” value is recorded as “soluble”.

Regarding “MSLDKAPERVVSVGYTDDQTVLAFGIKPVGMVDQYPNPAGQSPDINTQWPWVKDKWGDTKPEVVMKNGDTGPNFEKIAALRPDLIVAVYSEIDQAAYDKLSKIAPTVGRTKGEKEPFSAPWQDNALHIAKALGKAEEGEKMVADIQGKLDAAKQAHPEFADKTAVVLSWYKDSVAPFTSTDVRGRLVTGIGFKYETEIDKVAGGDFYTTLSPERVDLVDVDRVFVINDKADQDALKKFELFTNLDAVKNGKVSYLLDSEGPAVGAAISQGTLLSMPYAVDELVKSAGEGHHHHHH”, the “soluble on expression in E. coli” value was “soluble”.

Consider “MGSEILVGIGEFRVAKGAVLKTIGLGSCVGIALYDPKLRLGGLAHVMLPQSGNGTKRSAKYADHAVEMMTEAMERLGSDRKRIVAKMAGGAQIFKHMTMDMLRIGDRNAEAIRTILRDYGIRIVSEDLGGDEGRTVYFFTNDGRMLVKYSRGGELWI”, for which the “soluble on expression in E. coli” value is “soluble”.

Take “MKLLLIGYGNVGKAFRRLLHEKKDNYPILQGVEIAGIITRQGLMVGDKENFSPDKQLTVLEAIDYINPDVIVDMSVPNYKDGEPSVSAYIKALSRKIHVITVNKAPLALKFREIFEVAEKTGAKIGFQGTVMSGTPSINLFRIQPVAEVSRIRGILNGTTNYILTRIYEGLSFNEALKEAKEKGYAEEDPTLDLNGFDAAAKLTILSNFIMNRSLKLGDFKFKGITEITNEEIRRAKSEGKKIKLIAYADNYVVQVSPQIIGPQDPLYYIDGVENALEIQNEIQRIIIRGPGAGPINAAYGALSDLVLLLEGCL”: the “soluble on expression in E. coli” value was “not soluble”.

For “MMNASTKFSDNYDVKEELGKGAFSVVRRCVHKTTGLEFAAKIINTKKLSARDFQKLEREARICRKLQHPNIVRLHDSIQEESFHYLVFDLVTGGELFEDIVAREFYSEADASHCIQQILESIAYCHSNGIVHRDLKPENLLLASKAKGAAVKLADFGLAIEVNDSEAWHGFAGTPGYLSPEVLKKDPYSKPVDIWACGVILYILLVGYPPFWDEDQHRLYAQIKAGAYDYPSPEWDTVTPEAKSLIDSMLTVNPKKRITADQALKVPWICNRERVASAIHRQDTVDCLKKFNARRKLKAAISAVKMVTRMSGVLRTSDSTGSVASNGSTTHDASQVAGTSSQPTSPAAEVYPNVLLFNPQKFPRNCVHPFTTHPYYSPKESSKKKLFFTLLFEVCPHTSRSHILLRDNTKNIYHPYHCFTNKMSNYERAAPSSHGSSTTKKIANAIADLVIRRSSPSIRRKTEADVHNSNRNRKVSAPANLQHALVPVIDVVVATGALASSSVDNLSASTSSDLGRNLLNKKEQGPPSTIKESSESSQTIDDNDSEKGGGQLKHENTVVRADGATGIVSSSNSSTASKSSSTNLSAQKQDIVRVTQTLLDAISCKDFETYTRLCDTSMTCFEPEALGNLIEGIEFHRFYFDGNRKNQVHTTMLNPNVHIIGEDAACVAYVKLTQFLDRNGEAHTRQSQESRVWSKKQGRWVCVHVHRSTQPSTNTTVSEF”, the “soluble on expression in E. coli” value was “not soluble”.

Take “MSLSLLSKLDVSPLQFQDPSKDGSKIINLNLDGSGDPLRLSELGESDYSNSIKVRDNEYVTYHLSNDYSVLTIYSMNDALQNKTINIKLPVQSTNKQHTSIVFVKDEAFNVEFILRNSIYLKISIPIDFIINNSSELNEDWFYVLQPYDFSVRKPHMLHRVSDNFSVVFLEDGGLVGLTSHGETDLEPILFNDNSYLQSITRLFSKSKHSKNSKVVSCSNYQSNFLIVLTEDCILKIWDLKKLILINEYNLFDVNNSDFIAGGLFDSCGNYLHLFNNLLTIYLPFTNGLFQVGTLDVDSSDKLTFQSKIVIPSNLPASSLWSLTDMRMINPLDLNLPETFLNIIVLWKSGTMSKLQILNILNESVDSYEWIDASNKDLEETRIESDIESSDFSKTLFKLTSRYPKAIVDRAIKVLEENGISIPLQEALDEEYLANLETLLRDIKGGCDEASSLTLYNDEIIVINCLQKYNYSIYKINCSLEKTYFDINDDSEGHHHHHH”: the “soluble on expression in E. coli” value is “soluble”.

For the sequence “MGSDKIHHHHHHMKVSGGEVPPFFKEGFFFTSEELTHLINVCSSTSAIISVLKDSKYRRSLVLYLKRPLSKDALLLIQTLLTTLEREDLSFGVKELEYMAYHDPLTGLPNRRYFFELGNRYLDLAKREGKKVFVLFVDLAGFKAINDTYGHLSGDEVLKTVSKRILDRVRRSDVVARYGGDEFTILLYDMKEEYLKSLLERILSTFREPVRVENKHLSVTPNIGVARFPEDGENLEELLKVADMRMYKAKEMKVPYFSLS”, the “soluble on expression in E. coli” value was “not soluble”.

In the case of “MGSDKIHHHHHHMSEETTGQLPDVLWHYTTFDTLTAILTSQCLLASDFRDTNDREEILFGFKALRDAFGTHNTWNTTEGFADPVSAAIRENEERIIEDLESSFLHGQMICLSSARDSLSMWRGYGQLTNGGGNGAVAIGFCAADLQTFCGPSDATLQSSTAHIQQNASGGFEGPSNVDYAFRNFPQLSNALSNEDYSADFHLKWTHYLAHWMKHRKHPAFAEEREYRIWGHAYDGNDKGNSQHVVFVGNHDRRKFHLAPAPDDILGPLTHPLAIQKIMVGPKTDFAKVERFTRNVFQSYTHDRPDMCASKIPFK”, the “soluble on expression in E. coli” value is recorded as “not soluble”.

On to “MGSDKIHHHHHHMEASFDIALASAYVNAHMYSQGLHVSRVAAKDSDFQGVSEKRYEIKDPKEMSRLIKKIGALFGSPLVRIVKLNPEWSYEHAPGDGRGYKYGEPVDIPEHWQYGIIMGIPLSWETREGAPSFFHTFEGYGNASMHCARMAEFVKKLGYPARENSPHARYEYIMPPHMVAAGIGEQGRLGVVVTPEFGPNFRPSMVVTNMPLEPDKPIDVGIRKFCMNCKICADQCPSGSISFDGPKEINGRGYDGWQINASTCHNFWMSVPNGGCRVCLAVCPFSKESNWLHTTARDIAVRERTGITASTLTWMEKAFYGVNTPEHYHYKEGTRQFDYLVGEKPWFFESKDFLKEN”, for which the “soluble on expression in E. coli” value was “not soluble”.

With “MSTFKPLKTLTSRRQVLKAGLAALTLSGMSQAIAKDELLKTSNGHSKPKAKKSGGKRVVVLDPGHGGIDTGAIGRNGSKEKHVVLAIAKNVRSILRNHGIDARLTRSGDTFIPLYDRVEIAHKHGADLFMSIHADGFTNPKAAGASVFALSNRGASSAMAKYLSERENRADEVAGKKATDKDHLLQQVLFDLVQTDTIKNSLTLGSHILKKIKPVHKLHSRNTEQAAFVVLKSPSVPSVLVETSFITNPEEERLLGTAAFRQKIATAIAEGVISYFHWFDNQKAHSKKR”, the “soluble on expression in E. coli” value is reported as “soluble”.

On to “MFKRLMMVALLVIAPLSAATAADQTNPYKLMDEAAQKTFDRLKNEQPQIRANPDYLRTIVDQELLPYVQVKYAGALVLGQYYKSATPAQRDAYFAAFREYLKQAYGQALAMYHGQTYQIAPEQPLGDKTIVPIRVTIIDPNGRPPVRLDFQWRKNSQTGNWQAYDMIAEGVSMITTKQNEWGTLLRTKGIDGLTAQLKSISQQKITLEEKK”, for which the “soluble on expression in E. coli” value is recorded as “not soluble”.

On to “MSWIPFKIGQPKKQIVSKTVERDFEREYGKLQQLEEQTKRLQKDMKKSTDADLAMSKSAVKISLDLLSNPLCEQDQDFLRMVTALDTAMKRMDAFNQEKVNQIQKTVIEPLKKFGSIFPSLNMAVKRREQALQDYGRLQAKVEKYEEKEKTGPVLAKLHQAREELRPVREDFEAKNKQLLDEMPRFYNSRLDYFQPSFESLIRAQVIYYSEMHKIFGDLTQQLDQPGHSDEHRERENETKLSELRALSIVADD”, for which the “soluble on expression in E. coli” value is “not soluble”.

In the case of “MGSDKIHHHHHHMEIHMNPWLNAVAQVEALEDLVLNADLVDSMRERWSGLSGSQVGRINFYTPSFKHHETSEVSACGKNAFPAISITGGDCKLQCDHCKAKILEPMIPVRTPEELDRLVDRIVLDGGRGLLLSGGSDHQNVVHYEPYFPTVRKIKDRYPNLQIAMHTGIATPEFARGMEDAGVDVAMMDVIGAQDTINQVYHLRRSVDDFEAALEALVATRMKVVPHIVIGLHYGELLGEWNALEIIQRHLPSALVLVVIMPQYAASSRPFATPAADEIGKFFMDARAALPETPVLLGCARPSGVHRSITDTYAVMAGLNGVAFPSDGMLALAKHLERDVFVTPSCCSMIVGEEVLALGDETTTVPLDYVPAAPKRRPQLRDIPIVFTA”, the “soluble on expression in E. coli” value was “not soluble”.

In the case of “MILRASVLSALLLVGLGAAPKHSVSANDKRMQDNLVSVIEKQTNKKVRILEIKPLKSSQDLKMVVIEDPDTKYNIPLVVSKDGNLIIGLSNIFFSNKSDDVQLVAETNQKVQALNATQQNSAKLNAIFNEIPADYAIELPSTNAANKDKILYIVSDPMCPHCQKELTKLRDHLKENTVRMVVVGWLGVNSAKKAALIQEEMAKARARGASVEDKISILEKIYSTQYDINAQKEPEDLRTKVENTTKKIFESGVIKGVPFLYHYKA”, the “soluble on expression in E. coli” value is given as “not soluble”.

On to “MQLHEQIANISVTFNDIPRSDHSMTPTELCYFDDFATTLVVDSVLNFTTHKMSKKRRYLYQDEYRTARTVMKTFREQRDWTNAIYGLLTLRSVSHFLSKLPPNKLFEFRDHIVRFLNMFILDSGYTIQECKRYSQEGHQGAKLVSTGVWSRGDKIERLSGVVCLLSSEDEDSILAQEGSDFSVMYSTRKRCSTLWLGPGAYINHDCRPTCEFVSHGSTAHIRVLRDMVPGDEITCFYGSEFFGPNNIDCECCTCEKNMNGAFSYLRGNENAEPIISEKKTKYELRSRS”, for which the “soluble on expression in E. coli” value is on record as “not soluble”.

For “MAEASPQPGRYFCHCCSVEIVPRLPDYICPRCESGFIEELPEETRNTENGSAPSTAPTDQNRQPFENVDQHLFTLPQGYSQFAFGIFDDSFEIPTFPPGAQADDGRDPESRREREHQSRHRYGARQPRARLTARRATGRHEGVPTLEGIIQQLVNGIISPAAVPSLGLGPWGVLHSNPMDYAWGANGLDTIITQLLNQFENTGPPPADKEKIQALPTVPVTEEHVGSGLECPVCKEDYALGESVRQLPCNHLFHDSCIVPWLEQHDSCPVCRKSLTGQNTATNPPGLTGVGFSSSSSSSSSSSPSNENATSNS”, the “soluble on expression in E. coli” value is “soluble”.

Turning to “GPGSGRYREGVEDCTKTLQIDKEFYKAYARRARCHEHLGDHFAAVRDFKKAIEYDSTDRELARELRAAEQNLAKEAEKERDFYFQLGVSRTATEREIKLKYRELSLRWHPDKCIGLDEVERERAEHKFKIISEAYATLVDAGKRREYDAKQDRERFTRAGGFNFSSTYSGGNANDYYRGRHRAGGNGFW”, the “soluble on expression in E. coli” value is given as “soluble”.

Consider “QDGGYSAREFMIFSSQPAEIADKIMKDLERGSTYINIEGAYKRTPGKAVYVVVDPSEVRQVREIIEEIDPKAFVSIRIVSEQLGEGFTYLRKKRSIFGR”, for which the “soluble on expression in E. coli” value is “not soluble”.
